According to US20250382355A1 (Merck Sharp & Dohme, published 2025):

Columns and labels:
[1] = molecular target: T1, MERS spike protein on recombinant CHO K1 cells (MERS-CoV, UniProt K9N5Q8 18-1353); test: FACS on CHO K1 cells
T1 sequence: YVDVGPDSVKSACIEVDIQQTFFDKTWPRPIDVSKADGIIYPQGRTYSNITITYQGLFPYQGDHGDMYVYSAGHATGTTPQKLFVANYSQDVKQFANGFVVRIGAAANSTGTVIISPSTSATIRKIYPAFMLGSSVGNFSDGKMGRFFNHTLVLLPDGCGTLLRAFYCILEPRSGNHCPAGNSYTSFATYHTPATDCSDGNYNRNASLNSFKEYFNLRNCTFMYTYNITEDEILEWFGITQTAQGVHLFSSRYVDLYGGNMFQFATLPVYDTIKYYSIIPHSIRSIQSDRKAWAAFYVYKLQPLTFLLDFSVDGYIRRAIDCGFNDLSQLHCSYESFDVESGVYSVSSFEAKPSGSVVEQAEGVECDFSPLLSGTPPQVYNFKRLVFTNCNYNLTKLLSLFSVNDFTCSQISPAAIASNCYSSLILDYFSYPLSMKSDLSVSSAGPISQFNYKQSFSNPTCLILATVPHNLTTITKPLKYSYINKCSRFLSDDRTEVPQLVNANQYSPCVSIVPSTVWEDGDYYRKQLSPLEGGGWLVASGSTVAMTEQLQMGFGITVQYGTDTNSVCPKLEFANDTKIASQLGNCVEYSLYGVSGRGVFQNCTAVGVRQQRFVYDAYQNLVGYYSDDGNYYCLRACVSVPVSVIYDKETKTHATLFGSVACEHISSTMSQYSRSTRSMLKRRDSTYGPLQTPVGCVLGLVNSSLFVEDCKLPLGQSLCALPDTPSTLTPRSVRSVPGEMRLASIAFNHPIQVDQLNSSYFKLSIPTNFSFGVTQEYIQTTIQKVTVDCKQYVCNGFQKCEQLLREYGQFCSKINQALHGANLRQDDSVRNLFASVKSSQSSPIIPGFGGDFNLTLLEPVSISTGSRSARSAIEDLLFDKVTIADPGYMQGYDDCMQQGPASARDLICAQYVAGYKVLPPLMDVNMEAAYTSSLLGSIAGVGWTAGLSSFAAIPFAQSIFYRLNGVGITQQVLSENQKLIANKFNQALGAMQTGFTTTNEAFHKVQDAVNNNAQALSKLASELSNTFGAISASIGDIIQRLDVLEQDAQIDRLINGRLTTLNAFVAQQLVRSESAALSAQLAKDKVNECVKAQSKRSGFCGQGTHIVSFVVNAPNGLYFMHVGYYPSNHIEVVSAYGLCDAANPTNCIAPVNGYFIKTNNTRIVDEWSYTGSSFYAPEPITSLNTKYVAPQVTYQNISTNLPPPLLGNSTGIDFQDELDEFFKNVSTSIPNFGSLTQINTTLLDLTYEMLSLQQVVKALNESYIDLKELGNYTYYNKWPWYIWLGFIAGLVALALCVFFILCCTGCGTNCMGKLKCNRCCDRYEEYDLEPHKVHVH

[2] = molecular target: T2, SARS-CoV-2 spike protein on recombinant CHO K1 cells (SARS-CoV-2, UniProt P0DTC2 14-1273); test: FACS on CHO K1 cells
T2 construct: whole, on cells

[3] = molecular target: spike protein of authentic SARS-CoV/Urbani virus (SARS-CoV, UniProt P59594 14-1255); test: cell-based or functional assay
[4] = molecular target: spike protein of authentic SARS-CoV-2 virus (SARS-CoV-2, UniProt P0DTC2 14-1273); test: cell-based or functional assay
[5] = molecular target: SARS-CoV spike on rVSV-deltaG-Luc pseudovirus (SARS-CoV, UniProt P59594 14-1236); test: cell-based or functional assay
[6] = molecular target: SARS-CoV spike protein on recombinant CHO K1 cells (SARS-CoV, UniProt P59594 14-1255); test: FACS on CHO K1 cells
[7] = molecular target: T3, OC43 spike protein (human coronavirus OC43, UniProt P36334 14-1278); test: ELISA
T3 sequence: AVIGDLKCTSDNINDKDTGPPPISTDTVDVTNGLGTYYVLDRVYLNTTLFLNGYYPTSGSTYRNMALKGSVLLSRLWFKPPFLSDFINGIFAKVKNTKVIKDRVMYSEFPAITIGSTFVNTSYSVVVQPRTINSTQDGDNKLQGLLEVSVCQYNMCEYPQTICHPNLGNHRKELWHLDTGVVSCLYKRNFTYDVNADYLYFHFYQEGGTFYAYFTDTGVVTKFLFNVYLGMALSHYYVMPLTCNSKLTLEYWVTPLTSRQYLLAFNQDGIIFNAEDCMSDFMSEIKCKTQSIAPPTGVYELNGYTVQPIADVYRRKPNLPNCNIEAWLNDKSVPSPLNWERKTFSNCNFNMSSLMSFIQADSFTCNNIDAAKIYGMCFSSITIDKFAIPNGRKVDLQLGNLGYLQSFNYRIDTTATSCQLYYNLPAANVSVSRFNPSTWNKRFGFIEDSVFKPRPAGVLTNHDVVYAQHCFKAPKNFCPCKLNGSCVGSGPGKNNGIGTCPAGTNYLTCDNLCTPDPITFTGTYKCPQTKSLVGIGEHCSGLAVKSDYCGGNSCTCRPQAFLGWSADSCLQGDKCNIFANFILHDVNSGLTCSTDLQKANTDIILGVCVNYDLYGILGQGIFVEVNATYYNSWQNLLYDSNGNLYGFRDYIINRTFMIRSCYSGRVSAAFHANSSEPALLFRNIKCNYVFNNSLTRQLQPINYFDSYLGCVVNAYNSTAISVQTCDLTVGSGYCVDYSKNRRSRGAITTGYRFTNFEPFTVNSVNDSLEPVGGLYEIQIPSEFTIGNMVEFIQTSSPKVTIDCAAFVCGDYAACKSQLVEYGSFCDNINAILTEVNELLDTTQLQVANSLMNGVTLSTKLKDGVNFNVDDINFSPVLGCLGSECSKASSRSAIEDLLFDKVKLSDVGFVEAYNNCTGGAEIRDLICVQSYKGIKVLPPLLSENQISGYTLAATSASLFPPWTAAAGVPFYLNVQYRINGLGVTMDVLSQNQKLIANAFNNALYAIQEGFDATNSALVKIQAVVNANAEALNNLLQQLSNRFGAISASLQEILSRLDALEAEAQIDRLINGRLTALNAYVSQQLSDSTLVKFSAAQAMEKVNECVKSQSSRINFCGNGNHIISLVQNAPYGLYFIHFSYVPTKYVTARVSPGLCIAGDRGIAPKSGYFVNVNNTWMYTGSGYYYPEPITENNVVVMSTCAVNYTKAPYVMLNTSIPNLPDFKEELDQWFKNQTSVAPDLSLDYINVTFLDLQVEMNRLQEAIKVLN

B1: 1E4 VHH-Fc (Fc fusion)
chain: QVLLVESGGGLVQAGGLLRLACSASGRTFTENVMGWFRQAPGKEREFVAAINWNTGSTYYSDSRKGRFTISKDNAKNTMFLQINNLKPEDTAVYYCGGTSSSYYYIGEFIPDYWGQGTQVTVSS
binding result [1]: no binding | EC50 [2]: 0.06 nM | authentic virus neutralization IC50 [3]: 0.05 nM | authentic virus neutralization IC50 [4]: 0.2 nM | pseudovirus neutralization IC50 [5]: 0.06 nM

B2: 10B8 VHH-Fc (Fc fusion)
chain: QVQLVESGGGLVQPGGSLRLSCAASGITLDYYAIAWFRQAPGKEREGVSCFCSSDGDIRYADSVKGRFTISRDNAKNTVYLQMNSLKPEDTAVYYCATERVYSSTWFFHRYSELDFGSWGRGTQVTVSS
binding result [1]: no binding | EC50 [2]: 0.19 nM | EC50 [6]: 0.14 nM | authentic virus neutralization IC50 [3]: 0.04 nM | authentic virus neutralization IC50 [4]: 0.3 nM | pseudovirus neutralization IC50 [5]: 0.09 nM

B3: 6A1 VHH-Fc (Fc fusion)
chain: QVQLVESGGGLVQAGGSLRLSCTASGNIFSVNVMGWHRQAPGKRRELVAALTNDGRRNYADSVKGRFTISRDNAKNTIYLEMNSLKPEDTAVYYCGTGTLESGFNSWGQGLQVTVSS
EC50 [1]: 0.13 nM | EC50 [2]: 0.14 nM | EC50 [7]: 0.08 nM
